Molecular target: T1, SloR (purified native) (UniProt I6L923 1-217)
T1 sequence: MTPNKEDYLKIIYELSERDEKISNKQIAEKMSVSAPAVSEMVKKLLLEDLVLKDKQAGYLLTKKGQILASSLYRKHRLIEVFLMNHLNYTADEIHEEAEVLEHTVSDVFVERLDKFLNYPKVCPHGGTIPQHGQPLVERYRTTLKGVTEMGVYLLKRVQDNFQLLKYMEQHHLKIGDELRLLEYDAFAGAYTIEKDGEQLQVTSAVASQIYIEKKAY
Assay: BLI

B1: mntH.22.SRE3.WT (dsDNA)
DNA 1: CAGTAATTCTTACAAACTCTTT
DNA 2: AAAGAGTTTGTAAGAATTACTG
B1: no binding.

From article PMC11566000
